The values below come from US20250197848A1 (published 2025).

The target of assay [1] is T1, PRAME peptide on HLA-A*02:01 (human).
T1 peptide: VLDGLDVLL
The assay can be described thus: cytokine release.

For assay [2], the target named is T2, PRAME peptide on HLA-A*02:01 (human).
T2 peptide: SLLQHLIGL
The experiment in a line: activation reporter or marker.

For assay [3], the target named is T3, NY-ESO-1/LAGE-1 peptide on HLA-A*02 (human).
T3 peptide: SLLMWITQC
The experiment in a line: cytokine release.

B1: PRAMEVLD-TCR (TCR, V domains shown)
Valpha: EDQVTQSPEALRLQEGESSSLNCSYTVSGLRGLFWYRQDPGKGPEFLFTLYSAGEEKEKERLKATLTKKESFLHITAPKPEDSATYLCAVHSTAQAGTALIFGKGTTLSVSS
Vbeta: DSGVTQTPKHLITATGQRVTLRCSPRSGDLSVYWYQQSLDQGLQFLIQYYNGEERAKGNILERFSAQQFPDLHSELNLSSLELGDSALYFCASSTHRGQTNYGYTFGSGTRLTVV
As to B1, the binding result is “recognises” in assay [1] and “no recognition” in assay [2].

B2: NY-ESO TCR (TCR, V domains shown)
Valpha: QKEVEQNSGPLSVPEGAIASLNCTYSDRGSQSFFWYRQYSGKSPELIMFIYSNGDKEDGRFTAQLNKASQYVSLLIRDSQPSDSATYLCAADDKIIFGKGTRLHILP
Vbeta: DAGVIQSPRHEVTEMGQEVTLRCKPISGHDYLFWYRQTMMRGLELLIYFNNNVPIDDSGMPEDRFSAKMPNASFSTLKIQPSEPRDSAVYFCASSRGGSGYTFGSGTRLTVV
Consider B2, for which the binding result in assay [3] is “recognises”.
